Where no end group is shown, it is not given here.
Key:
[1] = biological target: ClpAP complex (hexameric ClpA associated with tetradecameric ClpP) (Escherichia coli, UniProt P0ABH9 1-758; P0A6G7 15-207); test: single-turnover stopped-flow fluorescence
[2] = biological target: the molecule itself; test: SEC

ClpAP complex (hexameric ClpA associated with tetradecameric ClpP), sequence (P0ABH9 whole entry, chain 1 of 2): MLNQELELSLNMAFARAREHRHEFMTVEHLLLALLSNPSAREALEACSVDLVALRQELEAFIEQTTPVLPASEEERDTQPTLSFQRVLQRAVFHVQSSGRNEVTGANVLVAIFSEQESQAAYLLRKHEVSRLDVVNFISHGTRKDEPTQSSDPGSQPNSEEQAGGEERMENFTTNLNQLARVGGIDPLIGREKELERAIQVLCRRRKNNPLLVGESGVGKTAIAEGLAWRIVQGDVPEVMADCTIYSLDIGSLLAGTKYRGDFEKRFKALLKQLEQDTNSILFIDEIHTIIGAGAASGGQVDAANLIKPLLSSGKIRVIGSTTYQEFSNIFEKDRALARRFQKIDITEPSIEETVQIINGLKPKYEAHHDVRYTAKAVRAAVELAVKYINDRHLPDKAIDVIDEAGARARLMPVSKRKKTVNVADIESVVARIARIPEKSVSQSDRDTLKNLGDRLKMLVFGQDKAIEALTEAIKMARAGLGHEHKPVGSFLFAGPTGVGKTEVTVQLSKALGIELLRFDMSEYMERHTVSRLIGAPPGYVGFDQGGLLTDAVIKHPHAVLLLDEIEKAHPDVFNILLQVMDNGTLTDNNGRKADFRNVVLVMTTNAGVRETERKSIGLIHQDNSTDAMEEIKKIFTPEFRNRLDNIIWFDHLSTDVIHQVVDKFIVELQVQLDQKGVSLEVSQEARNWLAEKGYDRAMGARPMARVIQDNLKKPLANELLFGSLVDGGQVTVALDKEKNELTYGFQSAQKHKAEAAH
ClpAP complex (hexameric ClpA associated with tetradecameric ClpP), sequence (P0A6G7 15-207, chain 2 of 2): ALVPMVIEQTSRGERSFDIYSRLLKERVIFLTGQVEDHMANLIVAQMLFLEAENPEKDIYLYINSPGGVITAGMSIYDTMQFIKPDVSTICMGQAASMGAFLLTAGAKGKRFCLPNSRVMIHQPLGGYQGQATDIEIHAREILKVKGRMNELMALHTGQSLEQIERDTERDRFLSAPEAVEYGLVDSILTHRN

Row | Binder | binding result [1] | stoichiometry N [2]
1 | C(fluorescein‑5‑maleimide)LILHNKQLGMTGEVSFQAANTKSAANLKVKELRSKKKLAANDENYALAA [N-Cys-50 polypeptide translocation substrate] | binds | 
2 | C(fluorescein‑5‑maleimide)TGEVSFQAANTKSAANLKVKELRSKKKLAANDENYALAA [N-Cys-40 polypeptide translocation substrate] | binds | 
3 | C(fluorescein‑5‑maleimide)TKSAANLKVKELRSKKKLAANDENYALAA [N-Cys-30 polypeptide translocation substrate] | binds | 
4 | Escherichia coli ClpP (enzyme) not shown |  | 7

— PMC3918674 (Journal of molecular biology, 2013)
